Experimental data as given in the RNAGym collection of RNA variant scans (doi:10.7554/elife.90254).

B1: OR4K15 (parent)
chain: GUUAACGGUCAUAGGCCAUGGAAACUAGGAGCACCAUUUCGCUGCCAGUGAAGAAAUGAACAAAGAAAAUCUGGGCCAGGCAGGCAUCAAAAGAAAUAGUCUUGCGCUCAACCAGAAAGUCUGUAAUCAUUUUAAGGGUA

Variants of: B1
Assay: self-cleavage, relative activity (ratio to wild type); higher = more cleavage; in vitro, sequencing; the parent is a self-cleaving ribozyme

In order of falling self-cleavage:
1. GUUAACGGUCAUAGGCCAUGGAAACUAGGAGCACCAUCUCGCUGCCAGUGAAGAAAUGAACAAAGAAAAUCUGGGCCAGGCAGGCAUCAAAAAAAAUAGUCUUGCGCUCAACCAGAAAGUCUGUAAUCAUUUUAAGGGUA [U38C G93A]  2.41
2. UUUAACGGUCAUAGGCCAUGGAAACUAGGAGCACCAUUUCGCUGCCAGUGAAGAAAUGAACAAAGAAAAUCUGGGCCAGGCAGGCAUCAAAGGAAAUAGUCUUGCGCUCAACCAGAAAGUCUGUAAUCAUUUUAAGGGUA [G1U A92G]  1.91
3. GUUAACGGUCAUAGGCCAUGGAAACUAGGAGCACCAUUUCGCUGCCAGUGAAGAAAUGAACAAAGAAAAUCUGGGCCAGGCAGGCUUCAAAAGAAAUAGUCUUGCGCUCAACCAGAAAGUCUGUAAUCAUUUUAAGGGUA [A86U]  1.77
4. GUUAACGGUCAUAGGCCAUGGAAACUAGGAGUACCAUUUCGCUGCCAGUGAAGAAAUGAACAAAGAAAAUCUGGGCCAGGCAGGCAUCAAAAGAAAUAGUCCUGCGCUCAACCAGAAAGUCUGUAAUCAUUUUAAGGGUA [C32U U102C]  1.73
5. GUUAACGGUCAUAGGCCGUGGAAACUAGGAGCACCAUUUCGCUGCCAGUGAAGAAAUGAACAAAGAAAAUCUGGGCCAGGCAGGCAUCAAAAGAACUAGUCUUGCGCUCAACCAGAAAGUCUGUAAUCAUUUUAAGGGUA [A18G A96C]  1.68
6. GUUAACGGUCAUAGGCCAUGGAAACUAGGAGCACCAUCUCGCUGCCAGUGAAGAAAUGAACAAAGAAAAUCUGGGCCAGGCAGGCAUCAAAAGAAUUAGUCUUGCGCUCAACCAGAAAGUCUGUAAUCAUUUUAAGGGUA [U38C A96U]  1.66
7. GUUAACGGUCAUAGGCCAUGGAAACUAGGAGCACCAUUUCGCUGCCAGUGAAGAAAUGAAUGAAGAAAAUCUGGGCCAGGCAGGCAUCAAAAGAAAUAGUCUUGCGCUCAACCAGAAAGUCUGUAAUCAUUUUAAGGGUA [C61U A62G]  1.65
8. GCUAACGGUCAUAGGCCAUGGAAACUAGGAGCACCAUUUCGCUGCCAGUGAAGAAAUGAACAAAGAAAAUCUGGGCCAGGCAGGCAUCAAAAGAAAUAGUCUUGCGCUCAACCAGAAAGUCUGUAAUCAUUUUGAGGGUA [U2C A134G]  1.59
9. GUUAACGGUCAUAGGCCAUGGAAACUAGGAGCACCAUUUCGCUGCCAGUGAAGAAAUGAACAAAGAAAAUCUGGGCCAGGCAGGCAUAAAAAGGAAUAGUCUUGCGCUCAACCAGAAAGUCUGUAAUCAUUUUAAGGGUA [C88A A94G]  1.5
10. GUUAACGGUCAUAGGCCAUGGAAACUAGGAGCACCAUUUCGCUGCCAGUGAAGAUAUGAACAAAGAAAAUCUGGGCCAGGCAGGCAUCAAAAGAAAUAGUCAUGCGCUCAACCAGAAAGUCUGUAAUCAUUUUAAGGGUA [A55U U102A]  1.44
11. GUUAACGGUCAUAGGCCAUGGAAACUAGGGGCACCAUUUCGCUGCCAGUGAAGAAAUGAACAAAGAAAAUCUGGGCCAGGCAGGCACCAAAAGAAAUAGUCUUGCGCUCAACCAGAAAGUCUGUAAUCAUUUUAAGGGUA [A30G U87C]  1.39
12. GUUAACGGUCAUAGGCCAUGGAAACUAGGAGCACCAUUUCGCUGCCAGUGAAGAAAUGAACAAAGAAAAUCUGGGCCAGGCAGGCAUCAAAAGAAAUAGUCUCGCGCUCAACCAGAAAGUCUGUAAUCAUUUUAAGGGUG [U103C A140G]  1.38
13. GUUAACGGUCAUAGGCCAUGGAAACUAGGAGCACCAUUUCGCUGCCAGUGAGGAAAUGAACAAAGAAAAUCUGGGCCAGGCAGGCACCAAAAGAAAUAGUCUUGCGCUCAACCAGAAAGUCUGUAAUCAUUUUAAGGGUA [A52G U87C]  1.35
14. GUUAACGGUCAUAGGCCAUGGAAACUAGGAGCACCAUUUCGCUGCCAGUGAAGAAAUGAACAAAGAAAGUCUGGGCCAGGCAGGCAACAAAAGAAAUAGUCUUGCGCUCAACCAGAAAGUCUGUAAUCAUUUUAAGGGUA [A69G U87A]  1.29
15. GUUAACGGUCAUAGGCCAUGGAAACUAGGAGCACCAUUUCGCUGCCAGUGAAGAAAUGAACAAAGAAAAUCUGGGCCAGGCAGGCAUCAAAAGAAAUAGUCUUGCGCUCAACCAGAAAGUCCGUAAUCAUUUUAGGGGUA [U122C A135G]  1.24
16. GUUAACGGUCAUAGGCCAUGGAAACUAGGAGCACCAUUCCGCUGCCAGUAAAGAAAUGAACAAAGAAAAUCUGGGCCAGGCAGGCAUCAAAAGAAAUAGUCUUGCGCUCAACCAGAAAGUCUGUAAUCAUUUUAAGGGUA [U39C G50A]  1.2
17. GUUAACGGUCAUAGGCCAUGGAAACUAGGAGCACCAUUUCGCUGCCAGUGAAGAAAUGAACAAAGAAAAACUGGGCCAGGCAGGCAUCAAAAGAAAUAGUCUUGCGCUCAACCAGAAAGUCCGUAAUCAUUUUAAGGGUA [U70A U122C]  1.14
18. GUUAACGGUCAUAGGCCAUGGAAACUAGGAGCACCAUUUCGCUGCCAGUGAAGAAAUGAACAAAGAAAAUCUGGGCCAGGCAGGCACCAAAAGGAAUAGUCUUGCGCUCAACCAGAAAGUCUGUAAUCAUUUUAAGGGUA [U87C A94G]  1.04
19. GUUAACGGUCAUAGGCCAUGGAAACUAGGAGCACCAUUUCGCUGCCAGUGAAGAAAUGAACAAAGAAAAUCUGGGCCAGGCAGGCAUCAAAAGAAAUUGUCUUGCGCUCAACCAGUAAGUCUGUAAUCAUUUUAAGGGUA [A98U A116U]  0.97
20. GUUAACGGUCAUGGGCCAUGGAAACUAGGAGCACCAUUUCGCUGCCAGUGAAGAAAUGAACAAAGAAAAUCUGGGCCAGGCAGGCAUCAAAAGAAAUAGUCUUGCGCUCAACCAGAAAGUCUGUAAUCAUUUUAAAGGUA [A13G G136A]  0.95
21. GUUAACGGUAAUAGGCCAUAGAAACUAGGAGCACCAUUUCGCUGCCAGUGAAGAAAUGAACAAAGAAAAUCUGGGCCAGGCAGGCAUCAAAAGAAAUAGUCUUGCGCUCAACCAGAAAGUCUGUAAUCAUUUUAAGGGUA [C10A G20A]  0.86
22. GUUAACGGUCAUAGGCCAUGGAAACUAGGAGCACCAUUUCGCUGCCAGUGAAGAGAUGAACAAAGAAAAUCUGGGCCAGGCAGGCAUCAAAAGAAAUAGUCUUGCGCUCAACCAGAAAGCCUGUAAUCAUUUUAAGGGUA [A55G U120C]  0.85
23. GUUAACGGUCAUAGGCCAUGGAAACUAGGAGCACCAUUUCGCUGCCAGUGAAGAGAUGAACAAAGAAAAUCUGGGCCAGGCAGGCAUCAAAAGAAAUAGUCAUGCGCUCAACCAGAAAGUCUGUAAUCAUUUUAAGGGUA [A55G U102A]  0.81
24. GUUAACGGCCAUAGGCCAUGGAAACUAGGAGCACCAUUUCGCUGCCAGUGAAGAAAUGAACAAAGAAAAUCAGGGCCAGGCAGGCAUCAAAAGAAAUAGUCUUGCGCUCAACCAGAAAGUCUGUAAUCAUUUUAAGGGUA [U9C U72A]  0.43
25. GUUAGCGGUCAUAGGCCAUGGAAACUAGGAGCACCAUUUCGCUGCCAGUGAAGAAAUGAACAAAGAAAAUCUGGGCCAGGCAGGCAUCAAAAGAAAUAGUCUUGCGCUCAACCAGAAAGUCUGUGAUCAUUUUAAGGGUA [A5G A125G]  0.42
26. GUUAACGGUCAUAGGCCAUGGAAACUAGGAGCGCCAUUUCGCUGCCAGUGAAGAACUGAACAAAGAAAAUCUGGGCCAGGCAGGCAUCAAAAGAAAUAGUCUUGCGCUCAACCAGAAAGUCUGUAAUCAUUUUAAGGGUA [A33G A56C]  0.41
27. GUUAACGGUCAUAGGCCAUGGUAACUAGGAGCACCAUUUCGCUGCCAGUGAAGAAAUGAACAAAGAAAAUCUGGGCCAGGCAGGCAUCAAAAGAAAUAGUCUUGCGCUCAACCAGAAAGUCUGUAAUCAUUUUAGGGGUA [A22U A135G]  0.4
28. GUUAACGGUCAUAGGCCAUGGAAACUAGGAGCACCAUUUCGCUGCCAGUGAAGAUAUGAACAAAGAAAAUCUGGGCCAGGCAGGCAUCAAAAGAAAUAGUCUUGCGCUCAACCAGAAAGUCUGUGAUCAUUUUAAGGGUA [A55U A125G]  0.35
29. GUUAACGGUCAUAGGCCAUGGAAACUAGGAGCACCAUUUCGCUGCCAGUGAAGAAAUGAACAAAGAAAAUCUGGGCCAGGAAGGCGUCAAAAGAAAUAGUCUUGCGCUCAACCAGAAAGUCUGUAAUCAUUUUAAGGGUA [C81A A86G]  0.16
30. GUUAACGGUCAUAGGCCAUGGAAACUAGGAGCACCAUUUCGCUGCCAGUGAAGAAAUGAACAAAGAAAAUCUGGGCCAGGCAGGCGUCAAAAGAAAUAGUCUUGCGCUCAACCAAAAAGUCUGUAAUCAUUUUAAGGGUA [A86G G115A]  0.14
31. GUUAACGGUCAUAGGCCAUGGAAACUAGGAGCACCAUUUCGCUGCCAGUGAAGAAAUGAACAAGGAAAAUCUGGGCCAGGCAGGCAUCAAAAGAAAUAGUCUUGCGCUCAUCCAGAAAGUCUGUAAUCAUUUUAAGGGUA [A64G A111U]  0.1
32. GUUAACGGUCAUAGGCCAUGGAAACUAGGAGCACCAUUUCGCUGCCAGUGAAGAAAUGAACAAUGAAAAUCUGGACCAGGCAGGCAUCAAAAGAAAUAGUCUUGCGCUCAACCAGAAAGUCUGUAAUCAUUUUAAGGGUA [A64U G75A]  0.1
33. GUUAACGGUCAUAGGCCAUGGAAACUAGGAGCACCAUUUCGCUGCCAGUGAAGAAAUGAACAAAGAAAAUCUGGACCUGGCAGGCAUCAAAAGAAAUAGUCUUGCGCUCAACCAGAAAGUCUGUAAUCAUUUUAAGGGUA [G75A A78U]  0.09
34. GUUAACGGCCAUAGGCCAUGGAAACUAGGAGCACCAUUUCGCUGCCAGUGAAGAAAUGAACAAAGAAAAUCUGGGCCAGGCAGGCAUCAAAAGAAAUAGUCUUGCGCUCAUCCAGAAAGUCUGUAAUCAUUUUAAGGGUA [U9C A111U]  0.09
35. GUUAACGGUCAUAGGCCAUGGAAACUAGGAGCACCAUUUCGCUGCCAGUGAAGAAAUGAACAAAGAAAAUCUGGGCCAGGCUGGCAUCAAAAGAAAUAGUCUUGCGCUCAACCAGGAAGUCUGUAAUCAUUUUAAGGGUA [A82U A116G]  0.09
36. GUUAACGGUCAUAGGCCAUGGAAACUAGGAGCACCAUUUCGCUGCCAGUGAAGAAAUGAACAAAGAAAAUCUGGGCCAGGCCGGCAUCAAAAGAAAUAGUCUUGCGCUCAACCGGAAAGUCUGUAAUCAUUUUAAGGGUA [A82C A114G]  0.05
37. GUUAACGGUCUUAGGCCAUGGAAACUAGGAGCACCAUUUCGCUGCCAGUGAAGAAAUGAACAAAGAAAAUCUGGGCCAGGCAGGCAUCAAAAGAAAUAGUCUUGCGCUCAACCUGAAAGUCUGUAAUCAUUUUAAGGGUA [A11U A114U]  0.05
38. GUUAACGGUCAUAGGCCAUGGAAACUAGGAGCACCAUUUCGCUGCCAGUGAAGAAAUGAACAAAGAAAAUCUGGGCCAUGCAGGCAUCAAAAGAAAUAGUCUUGCGCUCAACCAGUAAGUCUGUAAUCAUUUUAAGGGUA [G79U A116U]  0.03
39. GUUAACGGUCAUAGGCCAUGGAAACUAGGAGCACCAUUUCGCUGCCAGUGAAGAAAUGAACAAAGAAAAUCUGGGCCAGGCAGGCAUCAAAAGAAAUAGUCUUGCGACCAACCAGAAAGUCUGUAAUCAUUUUAAGGGUA [C107A U108C]  0.02
40. GUUAACGGUCGUAGGCCAUGGAAACUAGGAGCACCAUUUCGCUGCCAGUGAAGAAAUGAACAAAGAAAAUCUGGGCCAGGCAGGCAUCAAAAGAAAUAGUCUUGCGCUCAAACAGAAAGUCUGUAAUCAUUUUAAGGGUA [A11G C112A]  0.02
41. GUUAACGGUCAUAGGCCAUGGAAACUAGGAGCACCUUUUCGCUGCCAGUGAAGAAAUGAACAAAGAAAAUCUGGGCCAGGCAGGCAUCAAAAGAAAUAGUCUUGCGCUCAACUAGAAAGUCUGUAAUCAUUUUAAGGGUA [A36U C113U]  0.02
